The target of data set [1] is clam E3-C/cyclosome complex, activated, partially purified.
In data set [2] the target is non-specific ubiquitin-protein ligase (E3) from clam oocyte Fraction 1A.

B1: recombinant clam E2-C, bacterially expressed (protein)
chain: MSGQNIDPAANQVRQKERPRDMTTSKERHSVSKRLQQELRTLLMSGDPGITAFPDGDNLFKWVATLDGPKDTVYESLKYKLTLEFPSDYPYKPPVVKFTTPCWHPNVDQSGNICLDILKENWTASYDVRTILLSLQSLLGEPNNASPLNAQAADMWSNQTEYKKVLHEKYKTAQSKDK
For B1, the “half-maximal activation of cyclin ubiquitination” value in data set [1] is “half-maximal activation was obtained with 0.05 µM recombinant E2”. In data set [2], the “formation of ubiquitin-protein conjugates” value is “the recombinant clam E2 had no significant influence on the formation of ubiquitin-protein conjugates by the non-specific E3”.

(Values after patent publication US6528633.)
